Data taken from patent publication US20230357348A1 (AstraZeneca / MedImmune, published 2023).
Starred links: 1 amine or outer side, 2 acyl side, 3 side chain; linkers in the order of their positions; H or OH if unused. Non-standard residues stand in square brackets, D forms with d. Groups on a side chain read outwards from the residue. No end group written: not given here. *: point of attachment. Trp(5-Br) = N[C@@H](Cc1c[nH]c2ccc(Br)cc12)C(=O)O; C20 diacid = O=C(O)CCCCCCCCCCCCCCCCCCC(=O)*; C18 diacid = O=C(O)CCCCCCCCCCCCCCCCC(=O)*; γGlu = O=C(O)[C@H](CCC(=O)[*:2])N[*:1]; αMeF = C[C@](N)(Cc1ccccc1)C(=O)O; AEEA = NCCOCCOCC(=O)O; Aib = CC(C)(N)C(=O)O

Legend:
[1] = molecular target: human glucagon receptor (hGCGR) (human, UniProt P47871 26-477); test: cell-based or functional assay
human glucagon receptor (hGCGR), sequence (P47871 26-477): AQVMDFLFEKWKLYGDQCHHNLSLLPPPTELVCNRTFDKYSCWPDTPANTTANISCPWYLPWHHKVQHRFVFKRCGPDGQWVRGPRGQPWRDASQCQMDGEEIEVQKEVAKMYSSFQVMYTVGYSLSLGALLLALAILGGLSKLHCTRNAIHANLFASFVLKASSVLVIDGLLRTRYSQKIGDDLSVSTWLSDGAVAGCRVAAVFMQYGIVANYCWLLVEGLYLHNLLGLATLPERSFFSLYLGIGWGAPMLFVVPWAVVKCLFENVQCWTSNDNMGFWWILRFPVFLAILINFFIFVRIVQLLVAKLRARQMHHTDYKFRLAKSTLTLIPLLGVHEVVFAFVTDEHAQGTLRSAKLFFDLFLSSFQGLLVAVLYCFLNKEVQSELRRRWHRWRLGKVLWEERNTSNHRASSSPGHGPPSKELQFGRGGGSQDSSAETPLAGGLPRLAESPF

[2] = molecular target: human GLP-1 receptor (hGLP-1R) (human, UniProt P43220 24-463); test: cell-based or functional assay

hGluc-R EC50 (pM) [1]	hGLP-1R EC50 (pM) [2]	Binder
68.9 pM	17.9 pM	H[Aib]QGTFTSDVSK[αMeF]LDKK([AEEA-AEEA-γGlu-C18 diacid])RAQDFVRWLEA[Aib]G-NH2 (N-terminus assumed; SMILES CC(C)C[C@H](NC(=O)[C@H](Cc1c[nH]c2ccccc12)NC(=O)[C@H](CCCNC(=N)N)NC(=O)[C@@H](NC(=O)[C@H](Cc1ccccc1)NC(=O)[C@H](CC(=O)O)NC(=O)[C@H](CCC(N)=O)NC(=O)[C@H](C)NC(=O)[C@H](CCCNC(=N)N)NC(=O)[C@H](CCCCNC(=O)COCCOCCNC(=O)COCCOCCNC(=O)CC[C@H](NC(=O)CCCCCCCCCCCCCCCCC(=O)O)C(=O)O)NC(=O)[C@H](CCCCN)NC(=O)[C@H](CC(=O)O)NC(=O)[C@H](CC(C)C)NC(=O)[C@](C)(Cc1ccccc1)NC(=O)[C@H](CCCCN)NC(=O)[C@H](CO)NC(=O)[C@@H](NC(=O)[C@H](CC(=O)O)NC(=O)[C@H](CO)NC(=O)[C@@H](NC(=O)[C@H](Cc1ccccc1)NC(=O)[C@@H](NC(=O)CNC(=O)[C@H](CCC(N)=O)NC(=O)C(C)(C)NC(=O)[C@@H](N)Cc1c[nH]cn1)[C@@H](C)O)[C@@H](C)O)C(C)C)C(C)C)C(=O)N[C@@H](CCC(=O)O)C(=O)N[C@@H](C)C(=O)NC(C)(C)C(=O)NCC(N)=O) [Peptide 438]
57.7 pM	30.6 pM	H[Aib]QGTFTSDVSK[αMeF]LDRK([AEEA-AEEA-γGlu-C18 diacid])RAQDFVRWLL[Aib]E-NH2 (N-terminus assumed; SMILES CC(C)C[C@H](NC(=O)[C@H](Cc1c[nH]c2ccccc12)NC(=O)[C@H](CCCNC(=N)N)NC(=O)[C@@H](NC(=O)[C@H](Cc1ccccc1)NC(=O)[C@H](CC(=O)O)NC(=O)[C@H](CCC(N)=O)NC(=O)[C@H](C)NC(=O)[C@H](CCCNC(=N)N)NC(=O)[C@H](CCCCNC(=O)COCCOCCNC(=O)COCCOCCNC(=O)CC[C@H](NC(=O)CCCCCCCCCCCCCCCCC(=O)O)C(=O)O)NC(=O)[C@H](CCCNC(=N)N)NC(=O)[C@H](CC(=O)O)NC(=O)[C@H](CC(C)C)NC(=O)[C@](C)(Cc1ccccc1)NC(=O)[C@H](CCCCN)NC(=O)[C@H](CO)NC(=O)[C@@H](NC(=O)[C@H](CC(=O)O)NC(=O)[C@H](CO)NC(=O)[C@@H](NC(=O)[C@H](Cc1ccccc1)NC(=O)[C@@H](NC(=O)CNC(=O)[C@H](CCC(N)=O)NC(=O)C(C)(C)NC(=O)[C@@H](N)Cc1c[nH]cn1)[C@@H](C)O)[C@@H](C)O)C(C)C)C(C)C)C(=O)N[C@@H](CC(C)C)C(=O)NC(C)(C)C(=O)N[C@@H](CCC(=O)O)C(N)=O) [Peptide 439]
81 pM	154 pM	H[Aib]QGTFTSDVSK[αMeF]LDKK([AEEA-AEEA-γGlu-C20 diacid])RARDFVRWLL[Aib]E-OH (N-terminus assumed; SMILES CC(C)C[C@H](NC(=O)[C@H](Cc1c[nH]c2ccccc12)NC(=O)[C@H](CCCNC(=N)N)NC(=O)[C@@H](NC(=O)[C@H](Cc1ccccc1)NC(=O)[C@H](CC(=O)O)NC(=O)[C@H](CCCNC(=N)N)NC(=O)[C@H](C)NC(=O)[C@H](CCCNC(=N)N)NC(=O)[C@H](CCCCNC(=O)COCCOCCNC(=O)COCCOCCNC(=O)CC[C@H](NC(=O)CCCCCCCCCCCCCCCCCCC(=O)O)C(=O)O)NC(=O)[C@H](CCCCN)NC(=O)[C@H](CC(=O)O)NC(=O)[C@H](CC(C)C)NC(=O)[C@](C)(Cc1ccccc1)NC(=O)[C@H](CCCCN)NC(=O)[C@H](CO)NC(=O)[C@@H](NC(=O)[C@H](CC(=O)O)NC(=O)[C@H](CO)NC(=O)[C@@H](NC(=O)[C@H](Cc1ccccc1)NC(=O)[C@@H](NC(=O)CNC(=O)[C@H](CCC(N)=O)NC(=O)C(C)(C)NC(=O)[C@@H](N)Cc1c[nH]cn1)[C@@H](C)O)[C@@H](C)O)C(C)C)C(C)C)C(=O)N[C@@H](CC(C)C)C(=O)NC(C)(C)C(=O)N[C@@H](CCC(=O)O)C(=O)O) [Peptide 440]
294 pM	153 pM	H[Aib]QGTFTSDVSK[αMeF]LDSK([AEEA-AEEA-γGlu-C18 diacid])RAQDFVR[Trp(5-Br)]LL[Aib]E-OH (N-terminus assumed; SMILES CC(C)C[C@H](NC(=O)[C@H](Cc1c[nH]c2ccc(Br)cc12)NC(=O)[C@H](CCCNC(=N)N)NC(=O)[C@@H](NC(=O)[C@H](Cc1ccccc1)NC(=O)[C@H](CC(=O)O)NC(=O)[C@H](CCC(N)=O)NC(=O)[C@H](C)NC(=O)[C@H](CCCNC(=N)N)NC(=O)[C@H](CCCCNC(=O)COCCOCCNC(=O)COCCOCCNC(=O)CC[C@H](NC(=O)CCCCCCCCCCCCCCCCC(=O)O)C(=O)O)NC(=O)[C@H](CO)NC(=O)[C@H](CC(=O)O)NC(=O)[C@H](CC(C)C)NC(=O)[C@](C)(Cc1ccccc1)NC(=O)[C@H](CCCCN)NC(=O)[C@H](CO)NC(=O)[C@@H](NC(=O)[C@H](CC(=O)O)NC(=O)[C@H](CO)NC(=O)[C@@H](NC(=O)[C@H](Cc1ccccc1)NC(=O)[C@@H](NC(=O)CNC(=O)[C@H](CCC(N)=O)NC(=O)C(C)(C)NC(=O)[C@@H](N)Cc1c[nH]cn1)[C@@H](C)O)[C@@H](C)O)C(C)C)C(C)C)C(=O)N[C@@H](CC(C)C)C(=O)NC(C)(C)C(=O)N[C@@H](CCC(=O)O)C(=O)O) [Peptide 434]
72.8 pM	62.7 pM	H[Aib]QGTFTSDVSK[αMeF]LDKK([AEEA-AEEA-γGlu-C20 diacid])RAQDFVRWLL[Aib]E-NH2 (N-terminus assumed; SMILES CC(C)C[C@H](NC(=O)[C@H](Cc1c[nH]c2ccccc12)NC(=O)[C@H](CCCNC(=N)N)NC(=O)[C@@H](NC(=O)[C@H](Cc1ccccc1)NC(=O)[C@H](CC(=O)O)NC(=O)[C@H](CCC(N)=O)NC(=O)[C@H](C)NC(=O)[C@H](CCCNC(=N)N)NC(=O)[C@H](CCCCNC(=O)COCCOCCNC(=O)COCCOCCNC(=O)CC[C@H](NC(=O)CCCCCCCCCCCCCCCCCCC(=O)O)C(=O)O)NC(=O)[C@H](CCCCN)NC(=O)[C@H](CC(=O)O)NC(=O)[C@H](CC(C)C)NC(=O)[C@](C)(Cc1ccccc1)NC(=O)[C@H](CCCCN)NC(=O)[C@H](CO)NC(=O)[C@@H](NC(=O)[C@H](CC(=O)O)NC(=O)[C@H](CO)NC(=O)[C@@H](NC(=O)[C@H](Cc1ccccc1)NC(=O)[C@@H](NC(=O)CNC(=O)[C@H](CCC(N)=O)NC(=O)C(C)(C)NC(=O)[C@@H](N)Cc1c[nH]cn1)[C@@H](C)O)[C@@H](C)O)C(C)C)C(C)C)C(=O)N[C@@H](CC(C)C)C(=O)NC(C)(C)C(=O)N[C@@H](CCC(=O)O)C(N)=O) [Peptide 441]
68.8 pM	7.43 pM	H[Aib]QGTFTSDVSK[αMeF]LDRK([AEEA-AEEA-γGlu-C18 diacid])RAQDFVRWLV[Aib]E-NH2 (N-terminus assumed; SMILES CC(C)C[C@H](NC(=O)[C@H](Cc1c[nH]c2ccccc12)NC(=O)[C@H](CCCNC(=N)N)NC(=O)[C@@H](NC(=O)[C@H](Cc1ccccc1)NC(=O)[C@H](CC(=O)O)NC(=O)[C@H](CCC(N)=O)NC(=O)[C@H](C)NC(=O)[C@H](CCCNC(=N)N)NC(=O)[C@H](CCCCNC(=O)COCCOCCNC(=O)COCCOCCNC(=O)CC[C@H](NC(=O)CCCCCCCCCCCCCCCCC(=O)O)C(=O)O)NC(=O)[C@H](CCCNC(=N)N)NC(=O)[C@H](CC(=O)O)NC(=O)[C@H](CC(C)C)NC(=O)[C@](C)(Cc1ccccc1)NC(=O)[C@H](CCCCN)NC(=O)[C@H](CO)NC(=O)[C@@H](NC(=O)[C@H](CC(=O)O)NC(=O)[C@H](CO)NC(=O)[C@@H](NC(=O)[C@H](Cc1ccccc1)NC(=O)[C@@H](NC(=O)CNC(=O)[C@H](CCC(N)=O)NC(=O)C(C)(C)NC(=O)[C@@H](N)Cc1c[nH]cn1)[C@@H](C)O)[C@@H](C)O)C(C)C)C(C)C)C(=O)N[C@H](C(=O)NC(C)(C)C(=O)N[C@@H](CCC(=O)O)C(N)=O)C(C)C) [Peptide 436]
96.9 pM	26.9 pM	H[Aib]QGTFTSDVSK[αMeF]LDRK([AEEA-AEEA-γGlu-C20 diacid])RAQDFVRWLV[Aib]E-NH2 (N-terminus assumed; SMILES CC(C)C[C@H](NC(=O)[C@H](Cc1c[nH]c2ccccc12)NC(=O)[C@H](CCCNC(=N)N)NC(=O)[C@@H](NC(=O)[C@H](Cc1ccccc1)NC(=O)[C@H](CC(=O)O)NC(=O)[C@H](CCC(N)=O)NC(=O)[C@H](C)NC(=O)[C@H](CCCNC(=N)N)NC(=O)[C@H](CCCCNC(=O)COCCOCCNC(=O)COCCOCCNC(=O)CC[C@H](NC(=O)CCCCCCCCCCCCCCCCCCC(=O)O)C(=O)O)NC(=O)[C@H](CCCNC(=N)N)NC(=O)[C@H](CC(=O)O)NC(=O)[C@H](CC(C)C)NC(=O)[C@](C)(Cc1ccccc1)NC(=O)[C@H](CCCCN)NC(=O)[C@H](CO)NC(=O)[C@@H](NC(=O)[C@H](CC(=O)O)NC(=O)[C@H](CO)NC(=O)[C@@H](NC(=O)[C@H](Cc1ccccc1)NC(=O)[C@@H](NC(=O)CNC(=O)[C@H](CCC(N)=O)NC(=O)C(C)(C)NC(=O)[C@@H](N)Cc1c[nH]cn1)[C@@H](C)O)[C@@H](C)O)C(C)C)C(C)C)C(=O)N[C@H](C(=O)NC(C)(C)C(=O)N[C@@H](CCC(=O)O)C(N)=O)C(C)C) [Peptide 437]
